Measured values: PMC10397247
Read-outs that look alike come from different tables or passages of the source.

Columns and labels:
Assay in all cases: two-hybrid library CCmax;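 further: natural log of median RNA to DNA barcode read ratio; higher means stronger binding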
[1] = target: T1, 4H_APH; conditions: mean of both orientations
T1 chain: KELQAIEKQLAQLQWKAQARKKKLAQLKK

[2] = target: T2, 4H384-AA
T2 chain: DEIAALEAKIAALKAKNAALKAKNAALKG

[3] = target: T3, 4H464-AA; conditions: mean of both orientations
T3 chain: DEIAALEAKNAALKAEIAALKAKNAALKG

[4] = target: T4, 4H3782-AA; conditions: mean of both orientations
T4 chain: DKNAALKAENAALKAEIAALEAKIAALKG

[5] = target: T5, 4H4038-AA; conditions: mean of both orientations
T5 chain: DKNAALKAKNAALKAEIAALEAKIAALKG

[6] = target: T6, 4H432-AA; conditions: mean of both orientations
T6 chain: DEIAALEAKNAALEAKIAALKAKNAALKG

[7] = target: T7, 4H3974-AA; conditions: mean of both orientations
T7 chain: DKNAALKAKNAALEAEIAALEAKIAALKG

[8] = target: T8, 4H3969-AA; conditions: mean of both orientations
T8 chain: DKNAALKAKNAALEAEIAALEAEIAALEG

[9] = target: T9, 4H3777-AA; conditions: mean of both orientations
T9 chain: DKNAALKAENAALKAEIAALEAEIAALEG

[10] = target: T10, 4H3094-AA; conditions: mean of both orientations
T10 chain: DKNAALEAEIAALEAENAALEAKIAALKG

[11] = target: T11, 4H_BCR; conditions: mean of both orientations
T11 chain: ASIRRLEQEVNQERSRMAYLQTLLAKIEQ

[12] = target: T12, 4H483-AA; conditions: mean of both orientations
T12 chain: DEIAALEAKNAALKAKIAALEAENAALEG

[13] = target: T13, 4H3449-AA; conditions: mean of both orientations
T13 chain: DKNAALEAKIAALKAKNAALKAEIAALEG

[14] = target: T14, 4H3939-AA; conditions: mean of both orientations
T14 chain: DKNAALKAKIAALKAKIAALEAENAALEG

[15] = target: T15, 4H43-AA; conditions: mean of both orientations
T15 chain: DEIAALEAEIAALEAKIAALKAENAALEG

[16] = target: T16, 4H32-AA
T16 chain: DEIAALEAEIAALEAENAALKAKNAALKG

[17] = target: T17, 4H3629-AA; conditions: mean of both orientations
T17 chain: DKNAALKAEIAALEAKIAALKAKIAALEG

[18] = target: T18, 4H451-AA; conditions: mean of both orientations
T18 chain: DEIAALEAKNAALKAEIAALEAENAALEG

[19] = target: T19, 4H3129-AA; conditions: mean of both orientations
T19 chain: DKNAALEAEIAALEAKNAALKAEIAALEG

[20] = target: T20, 4H3619-AA; conditions: mean of both orientations
T20 chain: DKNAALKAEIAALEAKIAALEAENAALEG

[21] = target: T21, 4H3414-AA; conditions: mean of both orientations
T21 chain: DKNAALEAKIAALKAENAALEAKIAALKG

[22] = target: T22, 4H63-AA; conditions: mean of both orientations
T22 chain: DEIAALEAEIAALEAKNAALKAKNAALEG

[23] = target: T23, 4H3587-AA
T23 chain: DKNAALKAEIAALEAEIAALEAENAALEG

[24] = target: T24, 4H3595-AA; conditions: mean of both orientations
T24 chain: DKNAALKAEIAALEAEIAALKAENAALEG

[25] = target: 4H_GCN4
[26] = target: T25, 4H3625-AA; conditions: mean of both orientations
T25 chain: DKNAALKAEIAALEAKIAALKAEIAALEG

[27] = target: T26, O13-AA; conditions: mean of both orientations
T26 chain: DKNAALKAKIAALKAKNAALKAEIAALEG

[28] = target: T27, 4H341-AA; conditions: mean of both orientations
T27 chain: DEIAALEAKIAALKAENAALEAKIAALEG

[29] = target: T28, 4H337-AA
T28 chain: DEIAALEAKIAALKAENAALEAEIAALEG

[30] = target: T29, 4H3915-AA; conditions: mean of both orientations
T29 chain: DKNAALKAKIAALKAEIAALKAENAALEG

[31] = target: GCN2_T
[32] = target: T30, 4H446-AA; conditions: mean of both orientations
T30 chain: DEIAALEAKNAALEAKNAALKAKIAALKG

[33] = target: T31, 4H3590-AA; conditions: mean of both orientations
T31 chain: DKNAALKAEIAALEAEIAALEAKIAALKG

[34] = target: T32, 4H510-AA; conditions: mean of both orientations
T32 chain: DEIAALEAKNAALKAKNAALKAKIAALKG

[35] = target: T33, 4H324-AA; conditions: mean of both orientations
T33 chain: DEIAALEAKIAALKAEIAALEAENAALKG

[36] = target: T34, O14-AA; conditions: mean of both orientations
T34 chain: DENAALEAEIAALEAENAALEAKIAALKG

[37] = target: T35, 4H380-AA; conditions: mean of both orientations
T35 chain: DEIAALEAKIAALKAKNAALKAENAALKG

[38] = target: T36, O11-AA; conditions: mean of both orientations
T36 chain: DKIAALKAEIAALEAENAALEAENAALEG

[39] = target: T37, 4H3049-AA
T37 chain: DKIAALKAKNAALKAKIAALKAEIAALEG

[40] = target: T38, 4H3905-AA; conditions: mean of both orientations
T38 chain: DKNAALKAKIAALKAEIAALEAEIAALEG

Chain of 4H_GCN4 (chain, as listed by the source): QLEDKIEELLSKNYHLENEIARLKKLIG

Binder: DKIAALKAKNAALKAKIAALKAEIAALEG [4H3049-AA]
- interaction score [1]: -1.8
- interaction score ([2]; mean of both orientations): -1.42
- interaction score [3]: 0.452
- interaction score [4]: 1.57
- interaction score [5]: 1.1
- interaction score [6]: -0.00195
- interaction score [7]: 1.52
- interaction score [8]: -0.09
- interaction score [9]: -0.0348
- interaction score [10]: 1.63
- interaction score [11]: -2.02
- interaction score [12]: -1.48
- interaction score [13]: -1.67
- interaction score [14]: -0.638
- interaction score [15]: 1.67
- interaction score [16]: 0.0606
- interaction score [17]: -0.842
- interaction score [18]: -1.18
- interaction score [19]: -1.06
- interaction score [20]: -0.754
- interaction score [21]: -0.414
- interaction score [22]: -1.15
- interaction score [23]: -0.69
- interaction score [24]: -1.01
- interaction score [25]: -0.802
- interaction score [26]: -0.0279
- interaction score [27]: -1.55
- interaction score [28]: 0.355
- interaction score ([29]; mean of both orientations): 1.59
- interaction score [30]: -1.52
- interaction score ([31]; mean of both orientations): -0.776
- interaction score [32]: -0.416
- interaction score [33]: 1.4
- interaction score [34]: -1.55
- interaction score [35]: -0.645
- interaction score [36]: 1.66
- interaction score [37]: -1.68
- interaction score [38]: 0.334
- interaction score [39]: -0.619

Binder: DEIAALEAKIAALKAENAALEAEIAALEG [4H337-AA]
- interaction score [1]: -1.22
- interaction score [2]: 1.88
- interaction score [5]: 2.08
- interaction score [11]: -0.845
- interaction score [15]: -0.783
- interaction score [18]: -0.516
- interaction score ([23]; mean of both orientations): -1.2
- interaction score [25]: -1.01
- interaction score [26]: -0.713
- interaction score [27]: 0.869
- interaction score [29]: -0.119
- interaction score [31]: -1.48
- interaction score [33]: 0.707
- interaction score [34]: 1.23
- interaction score [36]: 1.85
- interaction score [38]: -0.88
- interaction score [40]: -0.0231
